Measured values reported in article PMC8696220 (Cancer Communications, 2021).

Tests used:
His-Fascin = His-Fascin (human, UniProt Q16658 1-493); experiment: pull-down
GST-Fascin = GST-Fascin (human, UniProt Q16658 1-493); experiment: pull-down

B1: GST-fused C-terminal BROMO (659-832) domain of PCAF (domain or fragment)
chain: FSVIIKKQKEIIKKLIERKQAQIRKVYPGLSCFKDGVRQIPIESIPGIRETGWKPSGKEKSKEPRDPDQLYSTLKSILQQVKSHQSAWPFMEPVKRTEAPGYYEVIRFPMDLKTMSERLKNRYYVSKKLFMADLQRVFTNCKEYNPPESEYYKCANILEKFFFSKIKEAGLIDK
B1: binds (His-Fascin).

B2: GST-fused N-terminal (1-492) domain of PCAF (domain or fragment)
chain: MSEAGGAGPGGCGAGAGAGAGPGALPPQPAALPPAPPQGSPCAAAAGGSGACGPATAVAAAGTAEGPGGGGSARIAVKKAQLRSAPRAKKLEKLGVYSACKAEESCKCNGWKNPNPSPTPPRADLQQIIVSLTESCRSCSHALAAHVSHLENVSEEEMNRLLGIVLDVEYLFTCVHKEEDADTKQVYFYLFKLLRKSILQRGKPVVEGSLEKKPPFEKPSIEQGVNNFVQYKFSHLPAKERQTIVELAKMFLNRINYWHLEAPSQRRLRSPNDDISGYKENYTRWLCYCNVPQFCDSLPRYETTQVFGRTLLRSVFTVMRRQLLEQARQEKDKLPLEKRTLILTHFPKFLSMLEEEVYSQNSPIWDQDFLSASSRTSQLGIQTVINPPPVAGTISYNSTSSSLEQPNAGSSSPACKASSGLEANPGEKRKMTDSHVLEEAKKPRVMGDIPMELINEVMSTITDPAAMLGPETNFLSAHSARDEAARLEERRG
B2: binds (His-Fascin).

B3: GST-PCAF (enzyme)
chain: MSEAGGAGPGGCGAGAGAGAGPGALPPQPAALPPAPPQGSPCAAAAGGSGACGPATAVAAAGTAEGPGGGGSARIAVKKAQLRSAPRAKKLEKLGVYSACKAEESCKCNGWKNPNPSPTPPRADLQQIIVSLTESCRSCSHALAAHVSHLENVSEEEMNRLLGIVLDVEYLFTCVHKEEDADTKQVYFYLFKLLRKSILQRGKPVVEGSLEKKPPFEKPSIEQGVNNFVQYKFSHLPAKERQTIVELAKMFLNRINYWHLEAPSQRRLRSPNDDISGYKENYTRWLCYCNVPQFCDSLPRYETTQVFGRTLLRSVFTVMRRQLLEQARQEKDKLPLEKRTLILTHFPKFLSMLEEEVYSQNSPIWDQDFLSASSRTSQLGIQTVINPPPVAGTISYNSTSSSLEQPNAGSSSPACKASSGLEANPGEKRKMTDSHVLEEAKKPRVMGDIPMELINEVMSTITDPAAMLGPETNFLSAHSARDEAARLEERRGVIEFHVVGNSLNQKPNKKILMWLVGLQNVFSHQLPRMPKEYITRLVFDPKHKTLALIKDGRVIGGICFRMFPSQGFTEIVFCAVTSNEQVKGYGTHLMNHLKEYHIKHDILNFLTYADEYAIGYFKKQGFSKEIKIPKTKYVGYIKDYEGATLMGCELNPRIPYTEFSVIIKKQKEIIKKLIERKQAQIRKVYPGLSCFKDGVRQIPIESIPGIRETGWKPSGKEKSKEPRDPDQLYSTLKSILQQVKSHQSAWPFMEPVKRTEAPGYYEVIRFPMDLKTMSERLKNRYYVSKKLFMADLQRVFTNCKEYNPPESEYYKCANILEKFFFSKIKEAGLIDK
B3: binds (His-Fascin).

B4: His-PCAF (enzyme)
chain: B3 chain
B4: binds (GST-Fascin).
